Laboratory results published in PMC3933655, “An Improved Single Cell Ultrahigh Throughput Screening Method Based on In Vitro Compartmentalization” (PLoS ONE, 2014).

Experiments:
[1] = substrate: CCCC(=O)Oc1ccc2c(c1)Oc1cc(OC(=O)CCC)ccc1C21OC(=O)c2ccccc21; assay: cells, lysate or membranes; assay type: cell-based, Archaeoglobus fulgidus; settings: bulk reaction; enzyme preparation not told in main text (AFEST displayed on E. coli in the parallel droplet assay)
hydrolysis kinetics = substrate: CCCC(=O)Oc1ccc([N+](=O)[O-])cc1; assay: hydrolysis kinetics; assay type: biochemical, Archaeoglobus fulgidus; settings: 37°C
From the text: hydrolysis kinetics on AFEST

| Protein | Km [1] [µM] | Km (hydrolysis kinetics) [µM] | kcat (hydrolysis kinetics) [s⁻¹] | kcat/Km (hydrolysis kinetics) [M⁻¹ s⁻¹] |
| --- | --- | --- | --- | --- |
| AFEST (Archaeoglobus fulgidus DSM 4304) (protein, pET-28a(+) in E. coli BL21-CodonPlus(DE3), Ni-NTA purified; 5' primer starts … (MLDMPI)) MLDMPIDPVYYQLAEYFDSLPKFDQFSSAREYREAINRIYEERNRQLSQHERVERVEDRTIKGRNGDIRVRVYQQKPDSPVLVYYHGGGFVICSIESHDALCRRIARLSNSTVVSVDYRLAPEHKFPAAVYDCYDATKWVAENAEELRIDPSKIFVGGDSAGGNLAAAVSIMARDSGEDFIKHQILIYPVVNFVAPTPSLLEFGEGLWILDQKIMSWFSEQYFSREEDKFNPLASVIFADLENLPPALIITAEYDPLRDEGEVFGQMLRRAGVEASIVRYRGVLHGFINYYPVLKAARDAINQIAALLVFD | 240 | 22.47 | 135 | 6.03e+06 |
| AFEST (Archaeoglobus fulgidus DSM 4304; V293G) (protein, pET-28a(+) in E. coli BL21-CodonPlus(DE3), Ni-NTA purified; 5' primer starts … (MLDMPI)) MLDMPIDPVYYQLAEYFDSLPKFDQFSSAREYREAINRIYEERNRQLSQHERVERVEDRTIKGRNGDIRVRVYQQKPDSPVLVYYHGGGFVICSIESHDALCRRIARLSNSTVVSVDYRLAPEHKFPAAVYDCYDATKWVAENAEELRIDPSKIFVGGDSAGGNLAAAVSIMARDSGEDFIKHQILIYPVVNFVAPTPSLLEFGEGLWILDQKIMSWFSEQYFSREEDKFNPLASVIFADLENLPPALIITAEYDPLRDEGEVFGQMLRRAGVEASIVRYRGVLHGFINYYPGLKAARDAINQIAALLVFD |  | 9.74 | 118 | 1.21e+07 |
| AFEST (Archaeoglobus fulgidus DSM 4304; V293E) (protein, pET-28a(+) in E. coli BL21-CodonPlus(DE3), Ni-NTA purified; 5' primer starts … (MLDMPI)) MLDMPIDPVYYQLAEYFDSLPKFDQFSSAREYREAINRIYEERNRQLSQHERVERVEDRTIKGRNGDIRVRVYQQKPDSPVLVYYHGGGFVICSIESHDALCRRIARLSNSTVVSVDYRLAPEHKFPAAVYDCYDATKWVAENAEELRIDPSKIFVGGDSAGGNLAAAVSIMARDSGEDFIKHQILIYPVVNFVAPTPSLLEFGEGLWILDQKIMSWFSEQYFSREEDKFNPLASVIFADLENLPPALIITAEYDPLRDEGEVFGQMLRRAGVEASIVRYRGVLHGFINYYPELKAARDAINQIAALLVFD |  | 12.13 | 138 | 1.14e+07 |
| AFEST (Archaeoglobus fulgidus DSM 4304; F287Y/S94G) (protein, pET-28a(+) in E. coli BL21-CodonPlus(DE3), Ni-NTA purified; 5' primer starts … (MLDMPI)) MLDMPIDPVYYQLAEYFDSLPKFDQFSSAREYREAINRIYEERNRQLSQHERVERVEDRTIKGRNGDIRVRVYQQKPDSPVLVYYHGGGFVICGIESHDALCRRIARLSNSTVVSVDYRLAPEHKFPAAVYDCYDATKWVAENAEELRIDPSKIFVGGDSAGGNLAAAVSIMARDSGEDFIKHQILIYPVVNFVAPTPSLLEFGEGLWILDQKIMSWFSEQYFSREEDKFNPLASVIFADLENLPPALIITAEYDPLRDEGEVFGQMLRRAGVEASIVRYRGVLHGYINYYPVLKAARDAINQIAALLVFD |  | 15.42 | 155 | 1e+07 |
